The source of these data is publication PMC5653232.

This test deals with H3K9Cme3-NCP (fluorescein-labelled DNA, unlabelled wild type H2A) (human) (UniProt P0C0S8). Nature of the test: fluorescence polarisation.

Sequence of CHD3 PHD1/2 (373–508) (Q12873 373-508): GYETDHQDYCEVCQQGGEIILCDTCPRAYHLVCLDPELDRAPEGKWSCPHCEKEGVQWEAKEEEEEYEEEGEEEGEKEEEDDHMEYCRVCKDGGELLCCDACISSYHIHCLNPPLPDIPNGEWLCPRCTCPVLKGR

Consider “CHD3 PHD1/2 (373–508) (from UniProt Q12873 373-508) (domain or fragment)”, for which the Kd amounted to 1400 nM.

As usually defined, the Kd is the equilibrium constant for the complex coming apart. The low end stands for higher affinity, the high end for lower affinity.
